According to US11312781B2, “Antigen binding molecules that bind LIGHT” (Capella Bioscience Ltd., priority 2018, dated 2022):

Key:
LIGHT protein = biological target: T1, LIGHT protein (Homo sapiens, UniProt O43557, K214E); experiment: Hydrogen-deuterium exchange (HDX) mass spectrometry epitope mapping; assay type: binding; design: Difference uptake (3B04-control) / Uptake 3B04: unit not given here; details: for Uptake 3B04: average deuterium uptake n = 3
T1 construct: amino acids 74-240 LIGHT (R&D Systems, 664-LI-025); purchased R&D Systems 664-LI-025
T1 sequence (O43557 74-240 K214E): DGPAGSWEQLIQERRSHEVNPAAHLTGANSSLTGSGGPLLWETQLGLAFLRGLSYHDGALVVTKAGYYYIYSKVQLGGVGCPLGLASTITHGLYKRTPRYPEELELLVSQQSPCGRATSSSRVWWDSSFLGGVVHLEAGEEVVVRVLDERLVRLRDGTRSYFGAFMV
Experimental: The LIGHT protein (R&D Systems 664-LI-025) was solubilised in PBS buffer at a final concentration of 8 μM, whereas the antibodies were maintained at 20 μM in PBS. For complex formation the LIGHT protein was incubated with each antibody separately in 1:5 ratio on ice and HDX measurements were performed 30 min after incubation. All data were recorded on a waters Synapt G2Si equipped with a HDX platform. […] […] Subsequently each sample was quenched with 50 μL of 2M guanidinium chloride in at pH 2. The samples were passed through a pepsin column for 5 min to digest the protein and peptides were separated using a reverse phase chromatography. Data were analysed with DynamX software. Peptides were selected with a maximum length of 15 amino acids and a 5 ppm mass accuracy error. […] The analysis was repeated 3 times for each mAb.
HDX was used as a starting point to identify the epitope of antibody 3B04 binding to the LIGHT protein. A sequence coverage of 69.2% of the LIGHT protein was achieved and the regions that were not observed were due to the presence of a […] and glycosylation. The glycans were not removed from LIGHT in order to preserve the structure of the protein in a native state. […] (Difference in uptake between 3B04 and control mAb, Table 16, values in bold). […] The results from HDX spectrometry were used as a guide to identify a region of interest that was subsequently analysed using alanine scanning.

native trimeric LIGHT = biological target: T2, native trimeric LIGHT (Homo sapiens, UniProt O43557, K214E); experiment: Binding ratio of mAbs bound to LIGHT by native mass spectrometry; details: LIGHT incubated 1:5 molar ratio (protein:antibody)
T2 construct: amino acids 74-240 LIGHT (R&D Systems, 664-LI-025); purchased R&D Systems 664-LI-025
T2 sequence (O43557 74-240 K214E): as above
Experimental: The LIGHT protein (R&D Systems 664-LI-025) was solubilised in PBS buffer at a final concentration of 4 μM, whereas the mAbs were maintained at 20 μM in PBS. The samples were buffer exchanged into ammonium acetate pH 7.4 at different concentrations via a column with a cut-off of 40 kDa prior to mass spectrometry optimisation. […] Samples were stored at 4° C. and were used within one week. The antibodies were diluted to 1 μM prior to MSanalysis. For complex formation the LIGHT protein was incubated with each antibody separately in 1:5 ratio on ice and native mass measurements were performed 30 min after incubation.
Nano electrospray ionization measurements were performed using a Q Exactive hybrid quadrupole-Orbitrap mass spectrometer (Thermo Fisher Scientific) modified for the transmission and detection of high m/z ions. […] Elevated pressure was applied in the front optics and mass spectra were recorded at optimized collision energy. […] Data were analysed with Xcaliber software and deconvoluted manually.
Native mass spectroscopy was utilised to determine the ratio of mAb bound to native trimeric LIGHT. The measured mass of 3B04 (IgG4) was 147256±0.7 Da and the F19 anti-LIGHT mAb, (IgG4 mAb from EP2292663) was 147364±6.6 Da. […] Two major populations of the light protein were recorded with measured masses of 68 kDa and 71 kDa. […]

[1] = LIGHT peptide 194-202 SRVWWDSSF, Exposure (sec) 0.33
[2] = LIGHT peptide 194-202 SRVWWDSSF, Exposure (sec) 1.00
[3] = LIGHT peptide 194-202 SRVWWDSSF, Exposure (sec) 5.00
[4] = LIGHT peptide 194-202 SRVWWDSSF, Exposure (sec) 30.00
[5] = LIGHT peptide 195-202 RVWWDSSF, Exposure (sec) 0.33
[6] = LIGHT peptide 195-202 RVWWDSSF, Exposure (sec) 1.00
[7] = LIGHT peptide 195-202 RVWWDSSF, Exposure (sec) 5.00
[8] = LIGHT peptide 195-202 RVWWDSSF, Exposure (sec) 30.00
[9] = LIGHT peptide 197-202 WWDSSF, Exposure (sec) 0.33
[10] = LIGHT peptide 197-202 WWDSSF, Exposure (sec) 1.00
[11] = LIGHT peptide 197-202 WWDSSF, Exposure (sec) 5.00
[12] = LIGHT peptide 197-202 WWDSSF, Exposure (sec) 30.00
[13] = LIGHT peptide 203-209 LGGVVHL, Exposure (sec) 0.33
[14] = LIGHT peptide 203-209 LGGVVHL, Exposure (sec) 1.00
[15] = LIGHT peptide 203-209 LGGVVHL, Exposure (sec) 5.00
[16] = LIGHT peptide 203-209 LGGVVHL, Exposure (sec) 30.00
[17] = LIGHT peptide 203-214 LGGVVHLEAGEE, Exposure (sec) 0.33
[18] = LIGHT peptide 203-214 LGGVVHLEAGEE, Exposure (sec) 1.00
[19] = LIGHT peptide 203-214 LGGVVHLEAGEE, Exposure (sec) 5.00
[20] = LIGHT peptide 203-214 LGGVVHLEAGEE, Exposure (sec) 30.00

B1: 3B04: parental mouse anti-membrane LIGHT antibody, VL SEQ ID NO 1, VH SEQ ID NO 5; tested as chimeric human IgG4 mAb (antibody, listed as Homo sapiens, V domains shown)
VH: QVQLQQPGAELVRPGASVTLSCKASGYTFTDYEMHWVKQTPVHGLEWIGEIDPETGDTAYSQKFKGKATLTADKSSSTAYMEFRSLTSEDSAVYYCSRETDYFFDYWGQGTTLTVSS
VL: DIQMTQTPASLSASVGETVTITCGASENIYGALNWYQRKQGKSPQLLIYGATNLADGMSSRFSGSGSGRQYSLKISSLHPDDFATYYCQNVLTTPWTFGGGTKLEIKR
Difference uptake (3B04-control) (LIGHT protein; [1]): −0.296
Uptake 3B04 (LIGHT protein; [1]): 0.744
Difference uptake (3B04-control) (LIGHT protein; [2]): −0.443
Uptake 3B04 (LIGHT protein; [2]): 0.885
Difference uptake (3B04-control) (LIGHT protein; [3]): −0.405
Uptake 3B04 (LIGHT protein; [3]): 1.159
Difference uptake (3B04-control) (LIGHT protein; [4]): −0.656
Uptake 3B04 (LIGHT protein; [4]): 1.392
Difference uptake (3B04-control) (LIGHT protein; [5]): −0.254
Uptake 3B04 (LIGHT protein; [5]): 0.393
Difference uptake (3B04-control) (LIGHT protein; [6]): −0.399
Uptake 3B04 (LIGHT protein; [6]): 0.480
Difference uptake (3B04-control) (LIGHT protein; [7]): −0.474
Uptake 3B04 (LIGHT protein; [7]): 0.631
Difference uptake (3B04-control) (LIGHT protein; [8]): −0.756
Uptake 3B04 (LIGHT protein; [8]): 0.805
Difference uptake (3B04-control) (LIGHT protein; [9]): −0.187
Uptake 3B04 (LIGHT protein; [9]): 0.240
Difference uptake (3B04-control) (LIGHT protein; [10]): −0.269
Uptake 3B04 (LIGHT protein; [10]): 0.336
Difference uptake (3B04-control) (LIGHT protein; [11]): −0.217
Uptake 3B04 (LIGHT protein; [11]): 0.501
Difference uptake (3B04-control) (LIGHT protein; [12]): −0.252
Uptake 3B04 (LIGHT protein; [12]): 0.603
Difference uptake (3B04-control) (LIGHT protein; [13]): −0.029
Uptake 3B04 (LIGHT protein; [13]): 0.145
Difference uptake (3B04-control) (LIGHT protein; [14]): −0.027
Uptake 3B04 (LIGHT protein; [14]): 0.147
Difference uptake (3B04-control) (LIGHT protein; [15]): −0.014
Uptake 3B04 (LIGHT protein; [15]): 0.237
Difference uptake (3B04-control) (LIGHT protein; [16]): −0.052
Uptake 3B04 (LIGHT protein; [16]): 0.384
Difference uptake (3B04-control) (LIGHT protein; [17]): −0.050
Uptake 3B04 (LIGHT protein; [17]): 0.202
Difference uptake (3B04-control) (LIGHT protein; [18]): −0.033
Uptake 3B04 (LIGHT protein; [18]): 0.266
Difference uptake (3B04-control) (LIGHT protein; [19]): −0.087
Uptake 3B04 (LIGHT protein; [19]): 0.399
Difference uptake (3B04-control) (LIGHT protein; [20]): −0.081
Uptake 3B04 (LIGHT protein; [20]): 0.807
Epitope defined by HDX (LIGHT protein; soluble LIGHT): residues 195-197 of soluble LIGHT
Stoichiometry of mAb bound to native trimeric LIGHT (antibody:LIGHT trimer) (native trimeric LIGHT): one antibody per one LIGHT protein
